# From paper doi:10.1101/2020.02.21.960245 (bioRxiv, 2020)
# Read-outs that look alike come from different tables or passages of the source.
# T1: Rec114(375-428) (S. cerevisiae, UniProt P32841 375-428)
# T1 sequence: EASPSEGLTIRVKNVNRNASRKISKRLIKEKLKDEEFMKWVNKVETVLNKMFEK
# T2: untagged Rec114 (S. cerevisiae, UniProt P32841 1-428)
# T2 sequence: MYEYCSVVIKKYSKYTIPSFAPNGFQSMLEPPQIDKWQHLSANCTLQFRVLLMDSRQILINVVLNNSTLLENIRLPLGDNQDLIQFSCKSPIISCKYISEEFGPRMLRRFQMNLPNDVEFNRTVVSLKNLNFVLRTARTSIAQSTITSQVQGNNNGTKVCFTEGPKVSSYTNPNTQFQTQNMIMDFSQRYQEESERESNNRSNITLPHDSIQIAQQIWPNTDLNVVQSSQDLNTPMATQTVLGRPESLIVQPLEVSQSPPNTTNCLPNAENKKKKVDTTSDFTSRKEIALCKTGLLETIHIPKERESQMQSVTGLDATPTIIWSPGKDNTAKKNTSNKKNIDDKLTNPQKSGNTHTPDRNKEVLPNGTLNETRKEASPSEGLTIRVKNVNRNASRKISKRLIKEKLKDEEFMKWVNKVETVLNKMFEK
# B1: untagged wild-type Rec114(325-428) (domain or fragment)
# chain: PGKDNTAKKNTSNKKNIDDKLTNPQKSGNTHTPDRNKEVLPNGTLNETRKEASPSEGLTIRVKNVNRNASRKISKRLIKEKLKDEEFMKWVNKVETVLNKMFEK
# B2: HisFlagRec114 (natural protein)
# chain: T2 sequence
# B3: coiled-coil domain of Mer2 (residues 77-227) (domain or fragment)
# chain: IKVLNENSKTLCKSLNKFNQLLEQDAATNGNVKTLIKDLASQIENQLDKVSTAMLSKGDEKKTKSDSSYRQVLVEEISRYNSKITRHVTNKQHETEKSMRCTQEMLFNVGSQLEDVHKVLLSLSKDMHSLQTRQTALEMAFREKADHAYDR
# B4: untagged Mer2 (natural protein)
# chain: MVARGRTDEISTDVSEANSEHSLMITETSSPFRSIFSHSGKVANAGALEESDKQILEWAGKLELESMELRENSDKLIKVLNENSKTLCKSLNKFNQLLEQDAATNGNVKTLIKDLASQIENQLDKVSTAMLSKGDEKKTKSDSSYRQVLVEEISRYNSKITRHVTNKQHETEKSMRCTQEMLFNVGSQLEDVHKVLLSLSKDMHSLQTRQTALEMAFREKADHAYDRPDVSLNGTTLLHDMDEAHDKQRKKSVPPPRMMVTRSMKRRRSSSPTLSTSQNHNSEDNDDASHRLKRAARTIIPWEELRPDTLESEL
# B5: MBPMei4 (natural protein)
# chain: MSRGKLEDMEQKETSEVDWIICFALIQSRNPTLWKRALSRKKGDVEDVGALKSEKNLKINPRENSKHIYKWVAPFENGFLNNKSLFAHLEPIYNFLCQNKYKSFEDAVGLKELQSFSKDVSTADINNWFLPRYKILLKILSLKTKEIDFRGLSQVFQTLQILLVSHYSHRIDSDSSFKRTLIDVHVFNFIAKFLFNRILLKKNQNDPKWLQNFYDQGDGKHLCDKVDYKRLCSLHFTLIYSIINIQLIKIKTNQTFEPQILKYVSVLKLIEHILIIIESLIHVLIRFVSKHKLICINRKKAYCRVYLERELSLKKTYLKNFYSVISGVPEKELGGLLKILKIVILSLLETFESIEWQHLKPFLEKFPAHEISLQKKRKYIQAALLITAERNLIARFRLSRWFNETENI
# B6: untagged Mei4 (natural protein)
# chain: B5 chain
# Tests used:
# SEC-MALS [1] = biological target: the molecule itself; test: SEC-MALS
# cross-linking = biological target: the molecule itself; test: cross-linking
# Rec114(375-428) = biological target: T1, Rec114(375-428); test: SEC-MALS
# SEC-MALS [2] = biological target: the molecule itself; test: SEC-MALS; remark: listed apart in the source
# HisFlagRec114 = biological target: B2; test: SEC-MALS
# untagged Rec114 = biological target: T2, untagged Rec114; test: SEC-MALS
binder,measurement,setting,value
B1,stoichiometry N,SEC-MALS [1],2
B2,binding result,cross-linking,binds
B3,stoichiometry N,SEC-MALS [1],4
MSRGKLEDMEQKETSEVDWIICFALIQSRNPTLWKRALSRKKG (domain or fragment) [Mei4(1-43)],stoichiometry N,Rec114(375-428),2 Rec114 per Mei4
B4,stoichiometry N,SEC-MALS [2],4
B5,stoichiometry N,HisFlagRec114,2 Rec114 per Mei4
B6,stoichiometry N,untagged Rec114,2 Rec114 per Mei4
